T1: E-selectin (Homo sapiens, UniProt P16581)
T1 construct: stably transfected with full-length cDNA encoding human E-selectin; expressed in transfected cells
T1 sequence (P16581 22-610): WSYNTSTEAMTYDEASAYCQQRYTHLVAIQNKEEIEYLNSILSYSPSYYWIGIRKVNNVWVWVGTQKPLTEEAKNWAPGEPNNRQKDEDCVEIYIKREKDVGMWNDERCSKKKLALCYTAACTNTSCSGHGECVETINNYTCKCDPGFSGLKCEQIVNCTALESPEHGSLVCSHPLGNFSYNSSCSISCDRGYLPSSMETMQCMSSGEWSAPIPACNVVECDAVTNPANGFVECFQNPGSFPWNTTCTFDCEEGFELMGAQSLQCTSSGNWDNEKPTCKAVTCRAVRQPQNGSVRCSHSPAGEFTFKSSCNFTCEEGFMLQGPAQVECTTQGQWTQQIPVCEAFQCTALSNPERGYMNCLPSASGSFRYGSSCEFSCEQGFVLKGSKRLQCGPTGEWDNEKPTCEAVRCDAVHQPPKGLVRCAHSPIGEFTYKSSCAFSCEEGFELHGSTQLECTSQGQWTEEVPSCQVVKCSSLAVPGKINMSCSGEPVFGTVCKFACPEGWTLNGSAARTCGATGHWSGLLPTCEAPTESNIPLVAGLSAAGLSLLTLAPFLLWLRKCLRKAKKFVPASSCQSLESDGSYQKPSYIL

T2: P-selectin (Homo sapiens, UniProt P16109)
T2 construct: CHO-P (CHO stably transfected with human cDNA encoding full length P-selectin); expressed in transfected cells
T2 sequence (P16109 42-830): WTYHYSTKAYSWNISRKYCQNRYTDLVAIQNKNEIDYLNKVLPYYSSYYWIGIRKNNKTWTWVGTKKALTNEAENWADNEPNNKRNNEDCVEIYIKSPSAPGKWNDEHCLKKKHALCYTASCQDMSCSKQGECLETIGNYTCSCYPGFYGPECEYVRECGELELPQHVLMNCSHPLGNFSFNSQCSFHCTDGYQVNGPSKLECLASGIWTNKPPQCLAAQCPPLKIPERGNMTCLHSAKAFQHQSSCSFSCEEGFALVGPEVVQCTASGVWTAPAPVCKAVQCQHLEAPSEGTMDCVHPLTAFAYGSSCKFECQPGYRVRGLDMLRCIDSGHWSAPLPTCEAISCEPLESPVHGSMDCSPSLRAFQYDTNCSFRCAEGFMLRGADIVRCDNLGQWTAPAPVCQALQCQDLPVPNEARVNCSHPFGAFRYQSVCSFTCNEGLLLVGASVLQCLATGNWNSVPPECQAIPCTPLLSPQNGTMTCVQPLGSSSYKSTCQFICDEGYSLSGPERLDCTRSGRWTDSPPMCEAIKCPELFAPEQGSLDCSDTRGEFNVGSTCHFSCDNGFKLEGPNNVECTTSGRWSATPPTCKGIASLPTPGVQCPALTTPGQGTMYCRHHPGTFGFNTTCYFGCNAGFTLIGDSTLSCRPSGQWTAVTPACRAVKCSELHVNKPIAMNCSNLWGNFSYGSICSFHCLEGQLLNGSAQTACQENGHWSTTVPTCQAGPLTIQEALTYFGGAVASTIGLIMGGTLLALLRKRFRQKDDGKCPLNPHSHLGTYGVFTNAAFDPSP

T3: L-selectin (Rattus norvegicus, UniProt P30836)
T3 construct: L-selectin naturally expressed on leukocytes; endogenous in cells; host or cells: lymphocytes (rat thoracic duct lymphocytes; human PBMC also prepared)
T3 sequence (P30836 39-372): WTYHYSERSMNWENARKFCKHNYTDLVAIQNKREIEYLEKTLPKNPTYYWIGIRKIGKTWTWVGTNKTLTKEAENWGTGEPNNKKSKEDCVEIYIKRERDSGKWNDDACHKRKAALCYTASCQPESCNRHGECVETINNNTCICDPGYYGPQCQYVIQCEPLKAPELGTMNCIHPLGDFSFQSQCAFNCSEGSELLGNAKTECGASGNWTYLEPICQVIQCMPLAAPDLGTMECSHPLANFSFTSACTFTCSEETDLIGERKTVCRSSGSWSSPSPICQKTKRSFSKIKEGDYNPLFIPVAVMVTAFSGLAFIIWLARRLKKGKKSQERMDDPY

B1: KG1a PSGL-1: PSGL-1 immunoaffinity purified (PL-2) from KG1a cells (protein)
chain: QATEYEYLDYDFLPETEPPEMLRNSTDTTPLTGPGTPESTTVEPAARRSTGLDAGGAVTELTTELANMGNLSTDSAAMEIQTTQPAATEAQTTQPVPTEAQTTPLAATEAQTTRLTATEAQTTPLAATEAQTTPPAATEAQTTQPTGLEAQTTAPAAMEAQTTAPAAMEAQTTPPAAMEAQTTQTTAMEAQTTAPEATEAQTTQPTATEAQTTPLAAMEALSTEPSATEALSMEPTTKRGLFIPFSVSSVTHKGIPMAASNLSVNYPVGAPDHISVKQCLLAILILALVATIFFVCTVVLAVRLSRKGHMYPVRNYSPTEMVCISSLLPDGGEGPSATANGGLSKAKSPGLTPEPREDREGDDLTLHSFLP

How the values were obtained:
KG1a cells = experiment: CHO-E cell rolling on glutaraldehyde-fixed KG1a monolayers; format: cell-based, human; conditions: 2.8 dynes/cm^2; EDTA 5 mM; HECA 452 50 μg/ml
Description: (§1) E-selectin-mediated adhesive interactions, under defined shear stress, were examined between hematopoietic cell monolayers and suspensions of CHO-E (Chinese hamster ovary cells stably transfected with full-length cDNA encoding human E-selectin) in flow. CHO-E and empty vector constructs (CHO-Mock) were maintained in MEM 10% FBS/1% Penicillin/Streptomycin (Life Technologies, Inc.) and HAM's F-12 (Cellgro, Inc.)/5% FCS/1% Penicillin/Streptomycin, respectively. CHO-E cell tethering and rolling on hematopoietic cell monolayers was visualized by video microscopy in real time using the parallel-plate flow chamber. […] To prepare hematopoietic cell monolayers>90% confluent, suspensions of cells (KG1a, HL60, K562, or RPMI 8402) at 2×10^6/ml RPMI1640 without NaBicarbonate/2% FBS were cytocentrifuged in […] plates at 5×10^6/well and then fixed in 3% glutaraldehyde. Reactive aldehyde groups were blocked in 0.2M lysine, and plated cells were suspended H/H/Ca++. […] The number of CHO-E/Mock cell rolling on each monolayer was measured in one frame of five independent fields under 10× magnification from multiple experiments. A minimum of 3 experiments was performed and results were expressed as the mean±standard deviation.

HL60 cells = experiment: CHO-E cell rolling on glutaraldehyde-fixed HL60 monolayers; format: cell-based, human; conditions: 2.8 dynes/cm^2; EDTA 5 mM; HECA 452 50 μg/ml
Description: as §1

E-selectin = target: T1, E-selectin; experiment: CHO-E cell rolling on immobilized immunoprecipitates, parallel-plate flow chamber; format: cell-based
Protocol: CD44 was immunoprecipitated from untreated cell lysates or from cell lysates treated with N-glycosidase-F (0.8 U/ml) Vibrio cholerae neuraminidase (0.1 U/ml) or a-L-fucosidase (80 mU/ml), and PSGL-1 was immunoprecipitated from untreated cell lysates as previously described (Sackstein and Dimitroff, 2000; Dimitroff et al., 2000).
CD44 or PSGL-1 immunoprecipitates were spotted onto plastic petri dishes, fixed in 3% glutaraldehyde and incubated in 0.2M lysine to block unreactive aldehyde groups, and then non-specific binding was prevented by incubating in 100% FBS for 1 hr at RT. Fixed spots were also treated with Vibrio cholerae neuraminidase (0.1 U/ml assay medium), which was overlaid onto the spots and incubated at 37° C. for 1 hr. […] The flow rate was then increased to achieve a shear stress of 2.8 dynes/cm^2. The frequency of cells rolling per 100× magnification field was determined, and data were expressed as the mean±standard deviation of 8 fields visualized from a minimum of 3 experiments.

P-selectin = target: T2, P-selectin; experiment: CHO-P cell rolling on immobilized immunoprecipitates, parallel-plate flow chamber; format: cell-based; conditions: 2.8 dynes/cm^2
Protocol: CD44 or PSGL-1 immunoprecipitates were spotted onto plastic petri dishes, fixed in 3% glutaraldehyde and incubated in 0.2M lysine to block unreactive aldehyde groups, and then non-specific binding was prevented by incubating in 100% FBS for 1 hr at RT. Fixed spots were also treated with Vibrio cholerae neuraminidase (0.1 U/ml assay medium), which was overlaid onto the spots and incubated at 37° C. for 1 hr. The protein dishes were placed in the parallel-plate flow chamber and CHO-E, CHO-P (CHO stably transfected with human cDNA encoding full length P-selectin), CHO-P cells treated with function blocking anti-P-selectin moAb (clone AK-4; Pharmingen) (10 μg/ml), CHO-E cells treated with function blocking anti-E-selectin Abs (10 μg/ml) (clone 68-5H1 1) or Mock transfectants were perfused into the chamber (2×10^6/ml H/H/Ca++) at a flow rate of 0.2 ml/min until the cells were in contact with the substrate. The flow rate was then increased to achieve a shear stress of 2.8 dynes/cm^2. The frequency of cells rolling per 100× magnification field was determined, and data were expressed as the mean±standard deviation of 8 fields visualized from a minimum of 3 experiments.

L-selectin = target: T3, L-selectin; experiment: Stamper-Woodruff assay, lymphocyte adherence to immunoprecipitated CD44 and PSGL-1; format: cell-based; conditions: 0.75 μg/spot (PSGL-1 1 μg/spot); 80 rpm, 4° C.; 100× mag.
Protocol: These protein spots were then fixed in 3% glutaraldehyde, unreactive aldehyde groups were blocked in 0.2M lysine and slides were kept in RPMI-1640 without NaBicarbonate/2% FBS until ready for testing. Lymphocytes (10^7/ml RPMI-1640 without NaBicarbonate/5% FBS) were overlayed onto these fixed immunoprecipitates and incubated on an orbital shaker at 80 rpm for 30 min. at 4° C. The number of adherent lymphocytes was quantified by light microscopy using an ocular grid under 100× magnification (a minimum of 5 fields/slide, 2 slides/experiment, and 3 separate experiments). Data were presented as the mean number of bound lymphocytes±standard deviation. KG1a CD34 and L-selectin control immunoprecipitates were also tested in this manner. To verify the dependence for sialic acid, glutaraldehyde-fixed spots were treated with Vibrio cholerae neuraminidase (0.1 U/ml RPMI-1640 without NaBicarbonate/2% FBS for lhr at 37° C.).
Immunoaffinity purified material (0.75-3 μg/spot) was spotted onto glass slides for analyses in the Stamper-Woodruff assay (See below for assay description). For autoradiographic analysis of immunoprecipitated [^35S]-methionine-radiolabeled CD44 and PSGL-1, immunoprecipitates were spotted onto glass slides, allowed to dry and exposed Kodak BioMax-MR film for 12 h at −80° C. Densitometric analysis (optical density) of the autoradiograms was performed with a Hewlett-Packard Scanj et 5200C scanner and NIH Image processing and analysis program.

Molecule	CHO-E cell rolling / E-selectin ligand activity of KG1a cells (KG1a cells)	CHO-E cell rolling / E-selectin ligand activity of HL60 cells (HL60 cells)	E-selectin ligand activity (CHO-E cell rolling) (E-selectin; immunoprecipitates on plastic, 2.8 dynes/cm^2)	CHO-E cell rolling (E-selectin; lower shear stress of 0.6 dynes/cm^2)	P-selectin ligand activity (CHO-P cell rolling) (P-selectin)	Mean Number of Bound Lymphocytes (L-selectin)
O=C(O)CN(CCN(CC(=O)O)CC(=O)O)CC(=O)O [EDTA]	completely inhibited	completely inhibited				
B1			significantly lower	equivalent to that of CD44	rolled on KG1a PSGL-1	44.8
